In US20160297863A1 (WAKE FOREST UNIVERSITY HEALTH SCIENCES, published 2016):

Biological target: EphA2 receptor on GBM cells (human, UniProt P29317 24-976)
Test: cell-based or functional assay

Sequence of EphA2 receptor on GBM cells (P29317 24-976): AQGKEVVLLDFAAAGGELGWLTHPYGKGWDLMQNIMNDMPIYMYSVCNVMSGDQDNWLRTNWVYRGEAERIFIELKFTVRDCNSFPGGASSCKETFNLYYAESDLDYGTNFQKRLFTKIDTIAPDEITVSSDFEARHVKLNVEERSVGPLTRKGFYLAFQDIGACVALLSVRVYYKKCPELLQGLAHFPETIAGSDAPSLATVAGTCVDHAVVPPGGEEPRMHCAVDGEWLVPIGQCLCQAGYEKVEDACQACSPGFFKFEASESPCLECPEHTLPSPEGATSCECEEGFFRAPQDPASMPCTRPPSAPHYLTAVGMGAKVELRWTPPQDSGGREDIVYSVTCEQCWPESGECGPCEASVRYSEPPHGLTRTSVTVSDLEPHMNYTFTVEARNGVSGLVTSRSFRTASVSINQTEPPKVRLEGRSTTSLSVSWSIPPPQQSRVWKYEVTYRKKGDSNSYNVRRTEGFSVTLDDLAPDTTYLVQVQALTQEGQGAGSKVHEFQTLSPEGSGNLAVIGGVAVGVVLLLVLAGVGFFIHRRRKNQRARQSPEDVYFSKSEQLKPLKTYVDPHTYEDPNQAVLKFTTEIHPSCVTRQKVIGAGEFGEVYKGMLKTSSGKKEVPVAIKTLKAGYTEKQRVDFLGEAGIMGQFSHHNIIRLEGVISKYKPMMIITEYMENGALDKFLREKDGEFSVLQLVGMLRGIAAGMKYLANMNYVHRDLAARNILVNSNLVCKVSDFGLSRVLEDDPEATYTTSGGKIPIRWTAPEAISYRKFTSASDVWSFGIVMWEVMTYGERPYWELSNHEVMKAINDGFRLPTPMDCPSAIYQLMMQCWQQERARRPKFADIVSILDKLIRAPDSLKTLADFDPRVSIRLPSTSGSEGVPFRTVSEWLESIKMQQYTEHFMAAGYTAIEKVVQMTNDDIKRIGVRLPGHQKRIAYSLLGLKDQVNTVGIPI

B1: eA5-PE-C (eA5-Fc chemically conjugated to PE38QQR, glycosylated form) (other)
chain: QDPGSKAVADRYAVYWNSSNPRFQRGDYHIDVCINDYLDVFCPHYEDSVPEDKTERYVLYMVNFDGYSACDHTSKGFKRWECNRPHSPNGPLKFSEKFQLFTPFSLGFEFRPGREYFYISSAIPDNGRRSCLKLKVFVRPTNSCMKTIGVHDRVFDVNDKVENSLEPADDT
- IC50, GBM tumor cell killing (cell viability assay): ~10 pM
